Laboratory results taken from US20250339531A1, “DUX4 POLYPEPTIDES AND NUCLEIC ACIDS FOR TREATING INFLAMMATORY AND AUTOIMMUNE CONDITIONS” (Fred Hutchinson Cancer Center, priority 2021, published 2025).

Assays:
Experiment in all cases: anti-FLAG co-IP LC-MS, exp 3, +Dox
[1] = biological target: Neuroblast differentiation-associated protein AHNAK (Homo sapiens) (UniProt Q09666)
[2] = biological target: 60S ribosomal protein L13 (Homo sapiens) (UniProt P26373)
[3] = biological target: Endoplasmic reticulum chaperone BiP (Homo sapiens) (UniProt P11021)
[4] = biological target: Probable ATP-dependent RNA helicase DDX6 (Homo sapiens) (UniProt P26196)
[5] = biological target: Cytoskeleton-associated protein 4 (Homo sapiens) (UniProt Q07065)
[6] = biological target: Ribosome-binding protein 1 (Homo sapiens) (UniProt Q9P2E9)
[7] = biological target: Ribonuclease inhibitor (Homo sapiens) (UniProt P13489)
[8] = biological target: Tubulin alpha-4A chain (Homo sapiens) (UniProt P68366)
[9] = biological target: Tubulin beta-2A chain (Homo sapiens) (UniProt Q13885)
[10] = biological target: Elongation factor 1-gamma (Homo sapiens) (UniProt P26641)
[11] = biological target: Elongation factor 1-alpha 1 (Homo sapiens) (UniProt P68104)
[12] = biological target: 60S ribosomal protein L3 (Homo sapiens) (UniProt P39023)
Filamin-C (Homo sapiens) = Filamin-C (Homo sapiens) (UniProt Q14315)
Caprin-1 (Homo sapiens) = Caprin-1 (Homo sapiens) (UniProt Q14444)
[13] = biological target: Tubulin beta-6 chain (Homo sapiens) (UniProt Q9BUF5)
[14] = biological target: 40S ribosomal protein S8 (Homo sapiens) (UniProt P62241)
[15] = biological target: 60S ribosomal protein L4 (Homo sapiens) (UniProt P36578)
[16] = biological target: KN motif and ankyrin repeat domain-containing protein 2 (Homo sapiens) (UniProt Q63ZY3)
[17] = biological target: Nucleophosmin (Homo sapiens) (UniProt P06748)
Vimentin (Homo sapiens) = Vimentin (Homo sapiens) (UniProt P08670)
[18] = biological target: Plasminogen activator inhibitor 1 RNA-binding protein (Homo sapiens) (UniProt Q8NC51)
Drebrin (Homo sapiens) = Drebrin (Homo sapiens) (UniProt Q16643)
[19] = biological target: Tubulin alpha-1B chain (Homo sapiens) (UniProt P68363)
[20] = biological target: Protein disulfide-isomerase (Homo sapiens) (UniProt P07237)
Desmin (Homo sapiens) = Desmin (Homo sapiens) (UniProt P17661)
[21] = biological target: AP-2 complex subunit alpha-1 (Homo sapiens) (UniProt O95782)
[22] = biological target: Prostate tumor-overexpressed gene 1 protein (Homo sapiens) (UniProt Q86YD1)
[23] = biological target: Tubulin beta-4B chain (Homo sapiens) (UniProt P68371)
[24] = biological target: Alpha-actinin-4 (Homo sapiens) (UniProt O43707)
[25] = biological target: Serine/threonine-protein phosphatase 2A 65 kDa regulatory subunit A alpha isoform (Homo sapiens) (UniProt P30153)
Plectin (Homo sapiens) = Plectin (Homo sapiens) (UniProt Q15149)
[26] = biological target: Neutral cholesterol ester hydrolase 1 (Homo sapiens) (UniProt Q6PIU2)
[27] = biological target: Tubulin beta chain (Homo sapiens) (UniProt P07437)
[28] = biological target: Fibronectin (Homo sapiens) (UniProt P02751)
[29] = biological target: Prolyl 4-hydroxylase subunit alpha-1 (Homo sapiens) (UniProt P13674)
[30] = biological target: 40S ribosomal protein S3a (Homo sapiens) (UniProt P61247)
[31] = biological target: S-adenosylhomocysteine hydrolase-like protein 1 (Homo sapiens) (UniProt O43865)
[32] = biological target: Heat shock protein HSP 90-beta (Homo sapiens) (UniProt P08238)
[33] = biological target: 60S ribosomal protein L8 (Homo sapiens) (UniProt P62917)
[34] = biological target: Heterogeneous nuclear ribonucleoprotein K (Homo sapiens) (UniProt P61978)

Sequence of AP-2 complex subunit alpha-1 (Homo sapiens) (O95782 whole entry, one chain of several): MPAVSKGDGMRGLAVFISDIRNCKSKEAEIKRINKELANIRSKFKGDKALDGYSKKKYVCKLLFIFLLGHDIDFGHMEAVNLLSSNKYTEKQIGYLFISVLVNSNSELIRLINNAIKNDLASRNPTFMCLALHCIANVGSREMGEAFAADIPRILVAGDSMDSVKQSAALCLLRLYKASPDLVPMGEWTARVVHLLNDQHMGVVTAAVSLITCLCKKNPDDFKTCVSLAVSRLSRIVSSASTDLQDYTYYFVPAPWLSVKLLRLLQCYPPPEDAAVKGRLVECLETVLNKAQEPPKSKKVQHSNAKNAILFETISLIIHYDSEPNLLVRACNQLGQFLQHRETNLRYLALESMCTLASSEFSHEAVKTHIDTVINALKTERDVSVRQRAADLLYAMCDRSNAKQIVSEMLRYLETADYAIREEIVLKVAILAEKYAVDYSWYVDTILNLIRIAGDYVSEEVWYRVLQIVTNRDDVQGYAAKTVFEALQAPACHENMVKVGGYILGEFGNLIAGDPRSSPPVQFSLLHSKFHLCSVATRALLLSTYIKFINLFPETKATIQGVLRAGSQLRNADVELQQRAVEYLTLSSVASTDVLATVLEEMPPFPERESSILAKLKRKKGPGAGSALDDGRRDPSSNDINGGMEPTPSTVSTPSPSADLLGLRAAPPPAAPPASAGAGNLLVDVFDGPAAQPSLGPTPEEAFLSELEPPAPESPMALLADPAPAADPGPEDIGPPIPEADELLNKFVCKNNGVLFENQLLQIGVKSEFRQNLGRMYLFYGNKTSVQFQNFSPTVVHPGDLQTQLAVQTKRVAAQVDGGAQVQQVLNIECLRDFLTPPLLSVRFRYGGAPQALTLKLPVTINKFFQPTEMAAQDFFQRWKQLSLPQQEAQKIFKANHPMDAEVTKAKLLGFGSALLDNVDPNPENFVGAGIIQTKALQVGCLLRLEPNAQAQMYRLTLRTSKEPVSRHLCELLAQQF
Sequence of Protein disulfide-isomerase (Homo sapiens) (P07237 18-508 limits assumed): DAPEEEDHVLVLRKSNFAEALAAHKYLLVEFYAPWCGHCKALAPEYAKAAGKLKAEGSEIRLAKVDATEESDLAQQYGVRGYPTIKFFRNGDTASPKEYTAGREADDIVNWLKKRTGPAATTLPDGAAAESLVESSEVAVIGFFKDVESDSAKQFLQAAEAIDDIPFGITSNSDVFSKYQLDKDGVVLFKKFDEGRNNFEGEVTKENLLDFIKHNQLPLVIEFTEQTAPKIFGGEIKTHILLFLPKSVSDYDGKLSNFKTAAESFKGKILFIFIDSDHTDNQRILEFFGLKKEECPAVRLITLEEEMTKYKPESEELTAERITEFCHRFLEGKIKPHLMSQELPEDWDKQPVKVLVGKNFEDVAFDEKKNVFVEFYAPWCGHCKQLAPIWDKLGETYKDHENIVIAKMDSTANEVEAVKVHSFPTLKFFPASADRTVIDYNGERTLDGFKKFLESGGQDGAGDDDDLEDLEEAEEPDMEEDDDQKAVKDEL
Sequence of Nucleophosmin (Homo sapiens) (P06748 whole entry): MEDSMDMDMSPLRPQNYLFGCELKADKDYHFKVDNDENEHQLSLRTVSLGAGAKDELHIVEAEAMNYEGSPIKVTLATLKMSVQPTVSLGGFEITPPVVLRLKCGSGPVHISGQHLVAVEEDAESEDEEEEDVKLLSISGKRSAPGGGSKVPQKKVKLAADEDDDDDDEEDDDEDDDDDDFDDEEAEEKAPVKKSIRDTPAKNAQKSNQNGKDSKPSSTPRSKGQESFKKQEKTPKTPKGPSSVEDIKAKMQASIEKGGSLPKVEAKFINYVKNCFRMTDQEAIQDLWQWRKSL
Sequence of Tubulin beta-2A chain (Homo sapiens) (Q13885 whole entry): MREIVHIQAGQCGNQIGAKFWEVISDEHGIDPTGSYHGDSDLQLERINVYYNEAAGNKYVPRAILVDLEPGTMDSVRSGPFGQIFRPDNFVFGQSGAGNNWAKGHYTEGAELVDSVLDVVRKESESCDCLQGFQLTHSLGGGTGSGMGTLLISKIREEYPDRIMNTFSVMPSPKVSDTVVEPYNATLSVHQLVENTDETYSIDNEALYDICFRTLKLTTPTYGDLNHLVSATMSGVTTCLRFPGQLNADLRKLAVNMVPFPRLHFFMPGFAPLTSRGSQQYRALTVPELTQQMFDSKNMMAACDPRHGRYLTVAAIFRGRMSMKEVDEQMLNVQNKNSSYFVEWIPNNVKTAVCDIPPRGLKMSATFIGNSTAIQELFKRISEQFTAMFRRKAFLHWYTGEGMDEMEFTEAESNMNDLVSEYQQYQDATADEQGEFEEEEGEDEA
Sequence of Prostate tumor-overexpressed gene 1 protein (Homo sapiens) (Q86YD1 whole entry): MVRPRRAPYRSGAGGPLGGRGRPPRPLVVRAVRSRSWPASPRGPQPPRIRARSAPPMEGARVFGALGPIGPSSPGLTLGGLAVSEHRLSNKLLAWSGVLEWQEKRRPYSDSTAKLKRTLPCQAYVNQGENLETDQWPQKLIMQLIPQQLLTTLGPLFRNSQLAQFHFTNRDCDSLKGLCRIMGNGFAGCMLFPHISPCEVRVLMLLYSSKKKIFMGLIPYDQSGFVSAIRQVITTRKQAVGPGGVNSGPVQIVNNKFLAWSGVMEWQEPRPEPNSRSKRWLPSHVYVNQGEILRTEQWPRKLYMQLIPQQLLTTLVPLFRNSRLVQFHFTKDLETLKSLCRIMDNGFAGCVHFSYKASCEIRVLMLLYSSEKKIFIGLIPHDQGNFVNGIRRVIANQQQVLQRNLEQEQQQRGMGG
Sequence of Cytoskeleton-associated protein 4 (Homo sapiens) (Q07065 whole entry): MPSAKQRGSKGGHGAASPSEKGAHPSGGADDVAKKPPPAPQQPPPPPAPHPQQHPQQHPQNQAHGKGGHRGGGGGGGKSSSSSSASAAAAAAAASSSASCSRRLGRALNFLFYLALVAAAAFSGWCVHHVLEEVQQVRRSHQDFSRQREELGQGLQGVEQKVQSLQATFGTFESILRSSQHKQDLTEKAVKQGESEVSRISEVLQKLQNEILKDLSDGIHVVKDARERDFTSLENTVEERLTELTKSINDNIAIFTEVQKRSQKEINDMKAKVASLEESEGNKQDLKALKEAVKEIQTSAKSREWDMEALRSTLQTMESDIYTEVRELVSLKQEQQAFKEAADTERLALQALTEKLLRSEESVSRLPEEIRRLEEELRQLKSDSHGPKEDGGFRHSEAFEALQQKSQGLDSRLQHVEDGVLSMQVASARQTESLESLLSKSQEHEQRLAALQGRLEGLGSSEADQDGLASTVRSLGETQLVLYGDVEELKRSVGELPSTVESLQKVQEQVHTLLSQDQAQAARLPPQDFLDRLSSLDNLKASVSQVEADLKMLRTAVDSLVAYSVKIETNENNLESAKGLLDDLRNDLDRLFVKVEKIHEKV
Sequence of Ribosome-binding protein 1 (Homo sapiens) (Q9P2E9 whole entry): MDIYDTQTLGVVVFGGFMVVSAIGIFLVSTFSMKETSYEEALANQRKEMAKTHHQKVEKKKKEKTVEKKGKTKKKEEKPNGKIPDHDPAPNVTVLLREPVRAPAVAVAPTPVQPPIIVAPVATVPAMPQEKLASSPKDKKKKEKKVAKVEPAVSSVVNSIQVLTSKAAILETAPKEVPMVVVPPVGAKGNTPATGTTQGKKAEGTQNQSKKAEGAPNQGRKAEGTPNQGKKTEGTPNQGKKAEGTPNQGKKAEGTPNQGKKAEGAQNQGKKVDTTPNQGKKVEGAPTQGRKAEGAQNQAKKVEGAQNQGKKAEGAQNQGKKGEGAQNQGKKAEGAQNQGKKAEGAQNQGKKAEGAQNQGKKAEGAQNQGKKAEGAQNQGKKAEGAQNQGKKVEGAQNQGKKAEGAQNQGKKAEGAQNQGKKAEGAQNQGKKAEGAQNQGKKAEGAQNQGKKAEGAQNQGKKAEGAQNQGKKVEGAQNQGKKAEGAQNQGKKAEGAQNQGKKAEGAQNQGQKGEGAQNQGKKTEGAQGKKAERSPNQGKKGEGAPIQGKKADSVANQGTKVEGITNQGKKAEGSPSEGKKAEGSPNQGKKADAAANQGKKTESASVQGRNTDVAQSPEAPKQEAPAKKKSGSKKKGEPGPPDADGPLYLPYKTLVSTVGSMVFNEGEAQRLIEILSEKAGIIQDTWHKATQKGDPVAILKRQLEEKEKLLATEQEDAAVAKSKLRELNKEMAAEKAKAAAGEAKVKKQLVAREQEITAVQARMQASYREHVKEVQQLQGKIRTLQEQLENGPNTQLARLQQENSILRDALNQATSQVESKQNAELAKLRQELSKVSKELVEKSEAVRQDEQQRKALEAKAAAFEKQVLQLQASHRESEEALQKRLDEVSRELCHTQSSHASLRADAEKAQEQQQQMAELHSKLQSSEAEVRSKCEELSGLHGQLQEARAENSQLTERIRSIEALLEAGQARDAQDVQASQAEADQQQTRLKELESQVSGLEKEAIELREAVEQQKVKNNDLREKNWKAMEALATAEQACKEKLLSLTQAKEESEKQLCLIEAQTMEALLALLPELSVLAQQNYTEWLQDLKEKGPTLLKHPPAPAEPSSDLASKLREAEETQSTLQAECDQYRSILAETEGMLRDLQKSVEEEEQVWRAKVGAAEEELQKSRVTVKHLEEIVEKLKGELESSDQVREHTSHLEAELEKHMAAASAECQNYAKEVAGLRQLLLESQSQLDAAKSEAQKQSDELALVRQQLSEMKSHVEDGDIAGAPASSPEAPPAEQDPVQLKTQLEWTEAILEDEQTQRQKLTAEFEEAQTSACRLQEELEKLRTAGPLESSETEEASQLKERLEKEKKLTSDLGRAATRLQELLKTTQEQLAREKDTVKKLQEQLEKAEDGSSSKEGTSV
Sequence of Neutral cholesterol ester hydrolase 1 (Homo sapiens) (Q6PIU2 whole entry): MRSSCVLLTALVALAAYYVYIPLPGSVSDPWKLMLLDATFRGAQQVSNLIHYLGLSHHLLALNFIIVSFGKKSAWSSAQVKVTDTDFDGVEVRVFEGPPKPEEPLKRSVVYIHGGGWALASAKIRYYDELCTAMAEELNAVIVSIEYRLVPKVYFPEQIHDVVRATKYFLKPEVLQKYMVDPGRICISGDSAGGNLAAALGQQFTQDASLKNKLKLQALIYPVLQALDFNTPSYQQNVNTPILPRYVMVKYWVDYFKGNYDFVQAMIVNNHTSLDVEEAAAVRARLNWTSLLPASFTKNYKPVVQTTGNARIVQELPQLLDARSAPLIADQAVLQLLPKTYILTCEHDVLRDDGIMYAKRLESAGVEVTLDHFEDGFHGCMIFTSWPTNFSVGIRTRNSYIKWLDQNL

i3XFLAG-NLS-CTDaa154-424 showed a PSMs [1] of 8 PSMs, a PSMs [2] of 2 PSMs and a PSMs [3] of 22 PSMs. The PSMs [4] was 2 PSMs, the PSMs [5] was 30 PSMs and the PSMs [6] was 24 PSMs. The PSMs [7] was 3 PSMs, the PSMs [8] was 14 PSMs and the PSMs [9] was 35 PSMs. The PSMs [10] was 3 PSMs, the PSMs [11] was 9 PSMs and the PSMs [12] was 3 PSMs. It also gave a PSMs (Filamin-C (Homo sapiens)) of 2 PSMs, a PSMs (Caprin-1 (Homo sapiens)) of 5 PSMs and a PSMs [13] of 20 PSMs. For the same substance, the PSMs [14] was 2 PSMs, the PSMs [15] was 10 PSMs and the PSMs [16] was 3 PSMs. It also gave a PSMs [17] of 2 PSMs, a PSMs (Vimentin (Homo sapiens)) of 42 PSMs and a PSMs [18] of 2 PSMs. The PSMs (Drebrin (Homo sapiens)) was 3 PSMs, the PSMs [19] was 22 PSMs and the PSMs [20] was 3 PSMs. The PSMs (Desmin (Homo sapiens)) was 9 PSMs, the PSMs [21] was 10 PSMs and the PSMs [22] was 2 PSMs. The PSMs [23] was 42 PSMs, the PSMs [24] was 2 PSMs and the PSMs [25] was 5 PSMs. The PSMs (Plectin (Homo sapiens)) was 5 PSMs, the PSMs [26] was 3 PSMs and the PSMs [27] was 41 PSMs. It also gave a PSMs [28] of 17 PSMs, a PSMs [29] of 3 PSMs and a PSMs [30] of 3 PSMs. It also gave a PSMs [31] of 7 PSMs, a PSMs [32] of 2 PSMs and a PSMs [33] of 3 PSMs. It also gave a PSMs [34] of 2 PSMs.
